Reference: US20130171170A1 (published 2013)

Assays:
[1] = molecular target: T1, CD22 variant lacking domain 1 (Δ1), expressed on CHO cells (human, UniProt P20273 139-847); assay: flow cytometry on CHO cells expressing the CD22 deletion variant; goat anti-mouse IgG Alexa 488
T1 construct: Membrane protein on stably transformed CHO cells; Numbering of full length precursor CD22beta (Wilson et al. 1991); also called CD22 lacking domain 1
T1 chain: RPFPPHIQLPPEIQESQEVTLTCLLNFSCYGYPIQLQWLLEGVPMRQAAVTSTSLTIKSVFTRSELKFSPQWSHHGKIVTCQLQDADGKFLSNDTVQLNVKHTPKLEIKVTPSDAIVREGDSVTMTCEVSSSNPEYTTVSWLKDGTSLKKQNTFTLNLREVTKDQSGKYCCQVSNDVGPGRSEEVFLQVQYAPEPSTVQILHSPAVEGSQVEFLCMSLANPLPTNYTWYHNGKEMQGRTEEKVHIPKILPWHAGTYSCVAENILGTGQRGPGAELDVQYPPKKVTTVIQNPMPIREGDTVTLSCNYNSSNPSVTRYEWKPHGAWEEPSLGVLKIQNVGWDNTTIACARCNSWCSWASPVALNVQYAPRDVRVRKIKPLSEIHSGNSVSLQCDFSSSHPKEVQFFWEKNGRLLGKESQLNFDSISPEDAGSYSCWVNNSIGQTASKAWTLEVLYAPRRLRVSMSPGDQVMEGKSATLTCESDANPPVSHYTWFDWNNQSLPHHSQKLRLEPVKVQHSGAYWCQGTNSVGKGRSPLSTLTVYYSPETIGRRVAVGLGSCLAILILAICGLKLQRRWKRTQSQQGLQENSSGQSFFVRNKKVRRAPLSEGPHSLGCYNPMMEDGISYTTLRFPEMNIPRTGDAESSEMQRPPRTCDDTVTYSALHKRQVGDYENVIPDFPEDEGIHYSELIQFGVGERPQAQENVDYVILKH
Protocol: (§1) CD22 sequences lacking various of the seven immunoglobulin-like domains of the major CD22 isoform (CD22beta) were cloned and transformed into cells for stable expression. For example, CD22 variants lacking domain 1 (Δ1), domain 2 (Δ2), or domains 3 and 4 (Δ3,4) were cloned, transformed into CHO cells, and expressed on the cells. Control cells expressed CD22beta. Deletions were performed using Stratagene QuikChange XL™ reagent kit. Deletion of domain 1 was performed by deletion of amino acids 22-138; deletion of domain 2 was performed by deletion of amino acids 139-242; and deleted domains 3 and 4 were available as the minor isoform CD22alpha (deletion of amino acids 241-417). All amino acid numbers refer to the numbering of full length precursor CD22beta by Wilson, G. L. et al. (see FIG. 1 in Wilson, G. L. et al., J. Exp. Med. 173:137-146 (1991)). FIG. 14 is a diagram of the deleted domains. Binding was determined by flow cytometry using an isotype control. […] Binding of 5E8.1.8 was detected using biotinylated goat anti-mouse IgG plus streptavidin PE.

[2] = molecular target: T2, CD22 variant lacking domain 2 (Δ2), expressed on CHO cells (human, UniProt P20273 22-847); assay: as above
T2 construct: Membrane protein on stably transformed CHO cells; Numbering of full length precursor CD22beta (Wilson et al. 1991); also called CD22 lacking domain 2
T2 chain: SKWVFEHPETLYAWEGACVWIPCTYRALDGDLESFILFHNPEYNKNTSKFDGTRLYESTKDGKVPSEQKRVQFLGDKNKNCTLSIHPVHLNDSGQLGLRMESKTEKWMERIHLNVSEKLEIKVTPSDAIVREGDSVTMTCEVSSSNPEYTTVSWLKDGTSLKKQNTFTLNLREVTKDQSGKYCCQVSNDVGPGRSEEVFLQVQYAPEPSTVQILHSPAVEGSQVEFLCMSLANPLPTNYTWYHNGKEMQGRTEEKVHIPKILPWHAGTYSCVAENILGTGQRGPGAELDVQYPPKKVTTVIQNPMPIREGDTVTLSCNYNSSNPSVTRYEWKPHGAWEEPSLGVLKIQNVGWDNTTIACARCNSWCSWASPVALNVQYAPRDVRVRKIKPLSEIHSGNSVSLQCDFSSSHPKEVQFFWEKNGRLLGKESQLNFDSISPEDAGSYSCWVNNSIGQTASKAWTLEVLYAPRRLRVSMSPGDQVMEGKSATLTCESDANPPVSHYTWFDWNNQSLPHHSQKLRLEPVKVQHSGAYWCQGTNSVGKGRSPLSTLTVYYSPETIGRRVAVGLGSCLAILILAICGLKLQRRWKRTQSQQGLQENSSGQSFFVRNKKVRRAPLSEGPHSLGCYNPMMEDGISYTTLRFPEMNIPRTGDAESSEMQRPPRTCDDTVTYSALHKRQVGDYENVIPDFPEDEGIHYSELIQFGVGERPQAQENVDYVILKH
Protocol: as §1

[3] = molecular target: T3, full length human CD22 (CD22beta) expressed on the surface of CHO cells (human, UniProt P20273 22-847); assay: cell-based competitive binding of 125I-labelled against unlabelled antibody on CHO cells, 4 h at 4 C, Scatchard analysis
T3 construct: CHO cells stably expressing full length human CD22; also called CD22beta (control cells)
Protocol: Briefly, CHO cells stably expressing full length human CD22 (SEQ ID NO:27) or cynomolgus monkey (cyno) CD22 (SEQ ID NO:31). […] A cell-based, competitive binding assay was performed using serially diluted, unlabeled anti-CD22 antibody. Antibodies were allowed to bind to the cells for 4 hours at 4° C. Binding affinity, KD, of the antibodies was determined in accordance with standard Scatchard analysis performed utilizing a non-linear curve fitting program (see, for example, Munson et al., Anal Biochem, 107: 220-239, 1980).

B1: murine anti-human CD22 10F4.4.1 monoclonal antibody (antibody, V domains shown)
VH: QVQLQQSGPELVKPGASVKISCKASGYEFSRSWMNWVKQRPGQGREWIGRIYPGDGDTNYSGKFKGKATLTADKSSSTAYMQLSSLTSVDSAVYFCARDGSSWDWYFDVWGAGTTVTVSS
VL: DILMTQTPLSLPVSLGDQASISCRSSQSIVHSNGNTFLEWYLQKPGQSPKLLIYKVSNRFSGVPDRFSGSGSGTDFTLKISRVEAEDLGVYYCFQGSQFPYTFGGGTKVEIK
notes: Murine hybridoma antibody (ATCC PTA-7621); also called mu 10F4; Mu 10F4.4.1
With B1 the binding result [1] was “no binding”, the binding result [2] was “no binding” and the Kd [3] was 2.4 nM.
